# Data from article PMC9239094 (mBio, 2022).
# B1: Schleiferia thermophila GldM′ (GldM truncated after the first periplasmic D1 domain, twin-Strep-tagged) (domain or fragment)
# chain: MAQGKLSPRQRMINMMYLVLTALLALNISKDILEALTKLNEDLSSTVMTVEKKLAFIYQAFDLAASENPEKAGVWRDKAYEVKKQADELHNYLEGIKNDLIEITGGIDEKTNRPKGLDNREKVANYLLVNEGGKAREIRARLEQFRDNMKQYVDEEAALINMLEALFNTEKKKVGDVMIEWENATFEHFPLAAVIPFITGIQANVRNAEADIISHLQRNIGKTDLKFTDENLYFQGQFGSWSHPQFEKGGGSGGGSGGGSWSHPQFEK
# B2: Capnocytophaga canimorsus GldM″ (GldM truncated after the D2 periplasmic domain, twin-Strep-tagged) (domain or fragment)
# chain: MAGGNSPRQKMINLMYLVFISMLALNMGKEVLSAFGLMNEKLEASNEKANNANINAIQALEQNNAENPDQFAEAFQKSKKVKELSDSFYNYIEGIKGEVMNQVGEDKKDYQVMDKSDYLDQKFFVGDNYKPEGEEFVRQINDYKTQLVELLGGKEGTYGELVGKIDGNFNTNDVVDREGVTRKWLNYNFEGFPYIASVAKLSMMQSDIRATEQEVYAEMLKGQLKSQISMTNYTTLLEQSKGAYYQGESFDGAIVLGRKDASTRPNEVELMLDGRKLSASEFQIEDGKVKLKVGAGNAGEHKITGNLYFDQDGKRIAVPVSQVFSTIPKPENLYFQGQFGSWSHPQFEKGGGSGGGSGGGSWSHPQFEK
# B3: Porphyromonas gingivalis PorL (natural protein)
# chain: MGHYRRYKNILEMYLASHKGRRLLNIVYSWGAAVVILGALFKLLHLPMGNEMLFVGMITEFLVFFISGFEKPAMEYHWEEVFPELDSKNPMDRREMEQRREYLREKAKEAAAYAERPSSVRLASASLGTQPQEQPKPATPFQSQLTGILPEEQIQRLSEGIDKLAEAGEQLARIGRTAAAMTESYEQMQADQEGLRLNSQSYIQQMESLSRNISGLNTIYEIQLKGISSQIDTIDRINRGLAHIRDMYDNSVIDSSSFRNENERMARQLTQLNEVYARLLQALTTNVGLPGMPGNFGASNPSSSGSSPL
# B4: Porphyromonas gingivalis PorM′ (PorM truncated after the first periplasmic D1 domain, twin-Strep-tagged) (domain or fragment)
# chain: MAVGSNGNANRQKMINLMYLVFIAMMALNVSSEVLDGFDKVDKSLTSSIDGSDKRNNLVLSELNTAYRTNPEKVKVWYERSLVLQKEADSLCTFIDDLKLAIARESDGKDAKVNDIRRKDNLDASSVVMLNPINGKGSTLRKEVDKFRELVATLMTDKAKLKLIEQALNTESGTKGKSWESSLFENMPTVAAITLLTKLQSDVRYAQGEVLADLVKSVDVGDYRVNS
# B5: Sphingobacterium wenxiniae GldM′ (GldM truncated after the first periplasmic D1 domain, twin-Strep-tagged) (domain or fragment)
# chain: MAGKKETPRQRMIGILYLVLLGLVALNVSDSILDAFKNLGNSLNTSTQNTQAGIDNMFLAFRETKLKENPERAQPILQKAEQAQALVQQLTSKVGELTTLLEGEGGGLDEETGDVKYRSSTDISARLMINEGRAKELREVITKTKAELLTLTNNEINLTLEAEDPAPRGGIKKTWEQANFGDGIPLTAAITALEKINADAKNAESAVVKHIFGKMDQAVVNLDQENLYFQGQFGSWSHPQFEKGGGSGGGSGGGSWSHPQFEK
# Legend:
# Experiment in all cases: cryo-EM structure; single-particle cryo-EM of the complex purified in LMNG (Strep-Tactin XT, then SEC); samples at A280 of 1 on Quantifoil Au R1.2/1.3 grids, blotted at 4°C; SthGldLM′ also with fluorinated octyl maltoside in buffer W (100 mM Tris-HCl pH 8.0, 150 mM NaCl, 1 mM EDTA) plus 0.01% LMNG
# [1] = target: Capnocytophaga canimorsus GldL (Capnocytophaga canimorsus)
# [2] = target: Schleiferia thermophila GldL (Schleiferia thermophila)
# [3] = target: Sphingobacterium wenxiniae GldL (Sphingobacterium wenxiniae)
# [4] = target: the molecule itself
Molecule,stoichiometry N [4],also measured
Capnocytophaga canimorsus GldL (natural protein),–,stoichiometry N [1]: 5
Schleiferia thermophila GldL (natural protein),–,stoichiometry N [2]: 5
Sphingobacterium wenxiniae GldL (natural protein),–,stoichiometry N [3]: 5
B1,2,–
B2,2,–
B3,5,–
B4,2,–
B5,2,–
